Assay results as given in article PMC6182153 (Nucleic Acids Research, 2018).

T1: Streptococcus pyogenes type II-A Cas1 with a C-terminal (His)6 tag (Streptococcus pyogenes, UniProt Q99ZW1 1-289)
T1 sequence (looked up): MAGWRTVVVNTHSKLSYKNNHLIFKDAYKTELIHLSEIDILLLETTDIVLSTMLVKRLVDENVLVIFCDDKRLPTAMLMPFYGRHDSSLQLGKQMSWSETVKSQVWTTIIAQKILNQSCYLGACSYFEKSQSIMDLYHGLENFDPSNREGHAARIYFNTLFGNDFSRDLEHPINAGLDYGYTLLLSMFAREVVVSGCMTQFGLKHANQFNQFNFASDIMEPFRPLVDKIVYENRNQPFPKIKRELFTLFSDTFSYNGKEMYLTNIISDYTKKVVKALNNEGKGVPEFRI

B1: Streptococcus pyogenes type II-A Csn2 (natural protein, UniProt Q99ZV9 1-220, looked up)
chain: MNLNFSLLDEPIPLRGGTILVLEDVCVFSKIVQYCYQYEEDSELKFFDHKMKTIKESEIMLVTDILGFDVNSSTILKLIHADLESQFNEKPEVKSMIDKLVATITELIVFECLENELDLEYDEITILELIKSLGVKVETQSDTIFEKCLEILQIFKYLTKKKLLIFVNSGAFLTKDEVASLQEYISLTNLTVLFLEPRELYDFPQYILDEDYFLITKNMV
B2: N-terminal (His)6-MBP-tagged full-length Streptococcus pyogenes type II-A Cas2 (natural protein, UniProt Q99ZW0 1-113, looked up)
chain: MSYRYMRMILMFDMPTDTAEERKAYRKFRKFLLSEGFIMHQFSIYSKLLLNNTANNAMIGRLREHNPNKGNITLLTVTEKQFARMIYLHGERNNCIANSDERLVFLGEAFDES
B3: Cas1-(His)6-MBP-Cas2 complex (complex, Streptococcus pyogenes)
chain 1: T1 sequence (looked up)
chain 2: B2 chain

How the values were obtained:
[1] = target: Streptococcus pyogenes type II-A Cas9 with a C-terminal (His)6 tag (Streptococcus pyogenes, UniProt Q99ZW2 1-1368); assay: SPR
[2] = target: B3; assay: ITC
[3] = target: T1, Streptococcus pyogenes type II-A Cas1 …; assay: ITC
[4] = target: B1; assay: ITC

Streptococcus pyogenes type II-A Cas9 with a C-terminal (His)6 tag, sequence (Q99ZW2 whole entry): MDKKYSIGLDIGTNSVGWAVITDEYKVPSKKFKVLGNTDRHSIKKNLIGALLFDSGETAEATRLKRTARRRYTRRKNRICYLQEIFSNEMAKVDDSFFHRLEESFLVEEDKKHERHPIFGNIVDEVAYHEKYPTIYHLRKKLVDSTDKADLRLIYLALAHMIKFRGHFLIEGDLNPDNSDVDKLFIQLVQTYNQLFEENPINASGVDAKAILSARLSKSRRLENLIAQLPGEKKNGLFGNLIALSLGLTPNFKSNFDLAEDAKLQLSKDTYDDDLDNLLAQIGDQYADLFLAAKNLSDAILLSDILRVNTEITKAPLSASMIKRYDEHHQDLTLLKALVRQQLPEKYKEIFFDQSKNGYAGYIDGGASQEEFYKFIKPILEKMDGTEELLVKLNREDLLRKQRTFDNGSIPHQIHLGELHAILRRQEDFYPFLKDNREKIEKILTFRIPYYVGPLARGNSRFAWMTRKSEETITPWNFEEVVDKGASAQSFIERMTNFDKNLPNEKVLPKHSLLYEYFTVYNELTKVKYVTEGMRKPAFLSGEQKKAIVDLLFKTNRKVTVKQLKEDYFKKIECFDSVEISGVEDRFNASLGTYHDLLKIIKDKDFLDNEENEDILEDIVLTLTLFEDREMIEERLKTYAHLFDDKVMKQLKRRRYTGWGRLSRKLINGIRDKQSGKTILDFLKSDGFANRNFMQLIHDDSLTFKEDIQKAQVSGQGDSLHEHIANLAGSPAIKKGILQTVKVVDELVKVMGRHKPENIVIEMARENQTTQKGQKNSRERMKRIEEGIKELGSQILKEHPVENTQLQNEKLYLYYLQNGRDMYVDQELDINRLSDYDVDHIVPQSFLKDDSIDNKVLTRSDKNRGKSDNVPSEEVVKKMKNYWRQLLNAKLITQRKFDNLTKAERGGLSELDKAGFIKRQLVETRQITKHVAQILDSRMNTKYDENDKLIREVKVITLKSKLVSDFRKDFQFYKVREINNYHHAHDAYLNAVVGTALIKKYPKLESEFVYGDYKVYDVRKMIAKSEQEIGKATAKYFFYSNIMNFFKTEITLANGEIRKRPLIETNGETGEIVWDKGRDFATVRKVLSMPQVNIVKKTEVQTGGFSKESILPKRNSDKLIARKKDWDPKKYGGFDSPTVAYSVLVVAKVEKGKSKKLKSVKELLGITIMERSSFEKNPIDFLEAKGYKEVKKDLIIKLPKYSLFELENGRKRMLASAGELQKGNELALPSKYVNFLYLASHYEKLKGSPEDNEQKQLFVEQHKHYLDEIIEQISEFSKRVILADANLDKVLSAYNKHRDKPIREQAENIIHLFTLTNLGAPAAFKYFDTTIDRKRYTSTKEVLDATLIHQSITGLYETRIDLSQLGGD

Binder: B1
- Kd [1]: 110 nM
- Kd [2]: 520 nM

Binder: B2
- Kd [3]: 240 nM
- stoichiometry N [3]: 0.44 (His)6-MBP-Cas2 per Cas1

Binder: B3
- stoichiometry N [4]: 2.1 Cas1–(His)6-MBP-Cas2 complex per Csn2 tetramer
